B1: mHOIL-1L_(1–140) [mouse] / GST-mHOIP_(466–630) [mouse] (parent complex)
chain 1: MDEKTKKAEEMALSLARAVAGGDEQAAIKYATWLAEQRVPLRVQVKPEVSPTQDIRLCVSVEDAYMHTVTIWLTVRPDMTVASLKDMVFLDYGFPPSLQQWVVGQRLARDQETLHSHGIRRNGDGAYLYLLSARNTSLNP
chain 2: SCGDPEKQRQDKMRKEGLQLVSMIQEGETAGASPEEVFSALQYSGTEVPLQWLRSELSYVLEMVAELAGQQDPELGAFSCQEARKAWLDRHGNLDEAVEECVRARRRKVHELQSLGFGPKEGSLQALFQHGGDVARALTELQRQRLEPFHQRLWDRDPEPTPCWD
B2: mHOIL-1L_(1–140) and mSHARPIN_(163–301) applied together [mouse] / GST-mHOIP_(466–630) [mouse] (parent complex)
chain 1: B1 chain 1
chain 2: SSGNFKKEELATRLSQAIAGGDEKAAAQVAAVLAQHHVALNVQLMEAWFPPGPIRLQVTVEDATSVLSSSSSAHVSLKIHPHCSIAALQDQVFSEFGFPPAVQRWVIGRCLCMPERSLASYGVSQDGDPAFLYLLSAPR
chain 3: B1 chain 2
B3: MBP-mSHARPIN UBL_(163–301) [mouse] / mHOIL-1L_(1–189)-strep [mouse] (parent complex)
chain 1: B2 chain 2
chain 2: MDEKTKKAEEMALSLARAVAGGDEQAAIKYATWLAEQRVPLRVQVKPEVSPTQDIRLCVSVEDAYMHTVTIWLTVRPDMTVASLKDMVFLDYGFPPSLQQWVVGQRLARDQETLHSHGIRRNGDGAYLYLLSARNTSLNPQELQRQRQLRMLEDLGFKDLTLQSRGPLEPVLPKPRTNQEPGQPDAAPE
B4: mSHARPIN_(163–301) [mouse] / GST-mHOIP_(466–630) [mouse] (parent complex)
chain 1: B2 chain 2
chain 2: B1 chain 2

Variants of: B1
Assay: SPR; response read at end of injection (about 180 s); GST-mHOIP D-UBA UBA2mut immobilized with anti-GST antibody; read off a plot

Variant	response [RU]
chain 2 SCGDPEKQRQDKMRKEGLQLVSMIQEGETAGASPEEVFSALQYSGTEVPLQWLRSELSYVLEMVAELAGQQDPELGAFSCQEARKAWLDRHGNLDEAVEECVRARRRKVHELQSLGFGPKEGSLQALFQHGGDVARALTELARQRAEPAHQRLWDRDPEPTPCWD [chain 2 Q142A, chain 2 L146A, chain 2 F149A]	~-3

Variants of: B1
Assay: SPR; response read at end of injection (about 180 s); GST-mHOIP D-UBA UBA1mut immobilized with anti-GST antibody; read off a plot

Variant	response [RU]
chain 2 SCGDPEKQAQDKMRKEGAQLASMIQEGETAGASPEEVFSALQYSGTEVPLQWLRSELSYVLEMVAELAGQQDPELGAFSCQEARKAWLDRHGNLDEAVEECVRARRRKVHELQSLGFGPKEGSLQALFQHGGDVARALTELQRQRLEPFHQRLWDRDPEPTPCWD [chain 2 R9A, chain 2 L18A, chain 2 V21A]	~60

Variants of: B2
Assay: SPR; response read at end of injection (about 180 s); GST-mHOIP D-UBA UBA2mut immobilized with anti-GST antibody; read off a plot

Variant	response [RU]
chain 3 SCGDPEKQRQDKMRKEGLQLVSMIQEGETAGASPEEVFSALQYSGTEVPLQWLRSELSYVLEMVAELAGQQDPELGAFSCQEARKAWLDRHGNLDEAVEECVRARRRKVHELQSLGFGPKEGSLQALFQHGGDVARALTELARQRAEPAHQRLWDRDPEPTPCWD [chain 3 Q142A, chain 3 L146A, chain 3 F149A]	~120

Variants of: B2
Assay: SPR; response read at end of injection (about 180 s); GST-mHOIP D-UBA UBA1mut immobilized with anti-GST antibody; read off a plot

Variant	response [RU]
chain 3 SCGDPEKQAQDKMRKEGAQLASMIQEGETAGASPEEVFSALQYSGTEVPLQWLRSELSYVLEMVAELAGQQDPELGAFSCQEARKAWLDRHGNLDEAVEECVRARRRKVHELQSLGFGPKEGSLQALFQHGGDVARALTELQRQRLEPFHQRLWDRDPEPTPCWD [chain 3 R9A, chain 3 L18A, chain 3 V21A]	~170

Variants of: B3
Assay: SPR; analyte 40 mM as printed in the legend; response read at end of injection (about 175 s); mHOIL-1L1-189-strep immobilized with anti-strep antibody; parent: 45; read off a plot

Variant	response [RU]
chain 1 SSGNFKKEELATRASQAAAGGDEKAAAQVAAVLAQHHVALNVQLMEAWFPPGPIRLQVTVEDATSVLSSSSSAHVSLKIHPHCSIAALQDQVFSEFGFPPAVQRWVIGRCLCMPERSLASYGVSQDGDPAFLYLLSAPR [chain 1 L14A, chain 1 I18A]	~3

Variants of: B4
Assay: SPR; response read at end of injection (about 180 s); GST-mHOIP D-UBA UBA1mut immobilized with anti-GST antibody; read off a plot

Variant	response [RU]
chain 2 SCGDPEKQAQDKMRKEGAQLASMIQEGETAGASPEEVFSALQYSGTEVPLQWLRSELSYVLEMVAELAGQQDPELGAFSCQEARKAWLDRHGNLDEAVEECVRARRRKVHELQSLGFGPKEGSLQALFQHGGDVARALTELQRQRLEPFHQRLWDRDPEPTPCWD [chain 2 R9A, chain 2 L18A, chain 2 V21A]	~0

Variants of: B4
Assay: SPR; response read at end of injection (about 180 s); GST-mHOIP D-UBA UBA2mut immobilized with anti-GST antibody; read off a plot

Variant	response [RU]
chain 2 SCGDPEKQRQDKMRKEGLQLVSMIQEGETAGASPEEVFSALQYSGTEVPLQWLRSELSYVLEMVAELAGQQDPELGAFSCQEARKAWLDRHGNLDEAVEECVRARRRKVHELQSLGFGPKEGSLQALFQHGGDVARALTELARQRAEPAHQRLWDRDPEPTPCWD [chain 2 Q142A, chain 2 L146A, chain 2 F149A]	~5

From article PMC6044281, “Cooperative Domain Formation by Homologous Motifs in HOIL-1L and SHARPIN Plays A Crucial Role in LUBAC Stabilization” (Cell reports, 2018)
